Measured values as given in patent publication US20060134719.

Assays:
[1] = biological target: T1, melanin-concentrating hormone (MCH), P20382
T1 chain: DFDMLRCMLGRVYRPCWQV

[2] = biological target: neuropeptide Y (NPY), P01303
[3] = biological target: T2, C-type natriuretic peptide 22 (CNP 22), P23582
T2 chain: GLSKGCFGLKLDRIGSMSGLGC

[4] = biological target: T3, A-type natriuretic peptide (ANP), P01160
T3 chain: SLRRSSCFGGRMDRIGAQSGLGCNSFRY

[5] = biological target: T4, vasoactive intestinal peptide (VIP), P01282
T4 chain: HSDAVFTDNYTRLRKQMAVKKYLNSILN

[6] = biological target: T5, α-melanocyte stimulating hormone (α-MSH), P01189 (not fully specified)
T5 chain: SYSMEHFRWGKPV

B1: purified signal-FLAG-ARS-extracellular enzyme after the treatment with trypsin beads (protein)
chain: STQGFHVDHTAELRGIRWTSSLRRETSDYHRTLTPTLEALFVSSFQKTELEASCVGCSVLNYRDGNSSVLVHFQLHFLLRPLQTLSLGLEEELLQRGIRARLREHGISLAAYGTIVSAELTGRHKGPLAERDFKSGRCPGNSFSCGNSQCVTKVNPECDDQEDCSDGSDEAHCECGLQPAWRMAGRIVGGMEASPGEFPWQASLRENKEHFCGAAIINARWLVSAAHCFNEFQDPTKWVAYVGATYLSGSEASTVRAQVVQIVKHPLYNADTADFDVAVLELTSPLPFGRHIQPVCLPAATHIFPPSKKCLISGWGYLKEDFLVKPEVLQKATVELLDQALCASLYGHSLTDRMVCAGYLDGKVDSCQGDSGGPLVCEEPSGRFFLAGIVSWGIGCAEARRPGVYARVTRLRDWILEATTKASMPLAPTMAPAPAAPSTAWPTSPESPVVSTPTKSMQALSTVPLDWVTVPKLQGIFGAER
- cleavage of the substrate peptide, HPLC analysis after reaction at 37° C. for 16 hours [1]: the enzyme sample selectively cleaved VIP, NPY, ANP, CNP, α-MSH, and MCH
- cleavage of the substrate peptide, HPLC analysis after reaction at 37° C. for 16 hours [2]: the enzyme sample selectively cleaved VIP, NPY, ANP, CNP, α-MSH, and MCH
- cleavage of the substrate peptide, HPLC analysis after reaction at 37° C. for 16 hours [3]: the enzyme sample selectively cleaved VIP, NPY, ANP, CNP, α-MSH, and MCH
- cleavage of the substrate peptide, HPLC analysis after reaction at 37° C. for 16 hours [4]: the enzyme sample selectively cleaved VIP, NPY, ANP, CNP, α-MSH, and MCH
- cleavage of the substrate peptide, HPLC analysis after reaction at 37° C. for 16 hours [5]: the enzyme sample selectively cleaved VIP, NPY, ANP, CNP, α-MSH, and MCH
- cleavage of the substrate peptide, HPLC analysis after reaction at 37° C. for 16 hours [6]: the enzyme sample selectively cleaved VIP, NPY, ANP, CNP, α-MSH, and MCH
